Experimental data: patent US20030166056A1, “Transmembrane protein as a downstream target of neurotrophin and ephrin receptor tyrosine kinases, DNA encoding same and monoclonal antibodies thereto” (New York University, priority 2000, published 2003)
“Also recorded” adds a separate entry of the source.

Experiments:
Type in all cases: cell-based
[1] = test system: tyrosine phosphorylation of ARMS by TrkA in PC12 615 cells; assay: Tyrosine phosphorylation of ARMS in PC12 615 cells (IP with 892 antiserum, pY99 immunoblot); details: for Induction of tyrosine phosphorylation of ARMS: 100 ng/ml NGF, 50 ng/ml EGF, 10 minutes and 2 hours; for Block of NGF-induced tyrosine phosphorylation of ARMS: 100 nM pretreatment
Description: Human embryonic kidney (HEK) 293 and 293T cells were maintained in Dulbecco's Modified Eagle's Medium (DMEM) containing 10% fetal bovine serum (FBS) supplemented with 100 U/ml penicillin, 100 μg/ml streptomycin, and 2 mM glutamine. Native PC12 cells, TrkA-overexpressing PC12 cells (615) (Hempstead et al., 1992), and TrkB-overexpressing PC12 cells were maintained in DMEM containing 10% FBS and 5% heat-inactivated horse serum with 30 U/ml penicillin, 30 μg/ml streptomycin, 2 mM glutamine, and 200 μg/ml G418.
For transient transfection experiments, HEK293 or HEK293T cells plated at 70-80% confluency in 10 cm dishes were subjected to calcium phosphate transfection with different combinations of the mammalian expression plasmids containing cDNAs for ARMS, rat TrkA, and rat HA-tagged p75 (Khursigara et al., 1999). PC12 615 cells or transiently transfected cells were harvested and lysed in 1 ml TNE buffer (10 mM Tris (pH 8.0), 150 mM NaCl, 1 mM EDTA, and 1% NP40) containing 0.12 mg/ml phenylmethylsulfonyl fluoride (PMSF), 2 μg/ml leupeptin, 1 μg/ml aprotinin, 10 mM sodium fluoride (NaF), and 1 mM sodium orthovanadate (Na3VO4) for 30 min on ice. Following centrifugation and removal of the insoluble fraction, protein concentration of the supernatant was determined by the Bio-Rad Protein Assay reagent (Bio-Rad Laboratories, Hercules, Calif.) with bovine serum albumin as the standard. Cell lysates of equivalent protein content were incubated for 4 hours to overnight with rotation at 4° C. with either anti-pan-Trk polyclonal antibody, C14 (1.5 μg) or anti-ARMS (892) antiserum (1:100). The immune complexes were immobilized on protein A-Sepharose beads (Sigma), washed six times with ice-cold TNE buffer, boiled in SDS-sample buffer, separated by sodium dodecyl sulfate-polyacrylamide gel electrophoresis (SDS-PAGE), and transferred onto PVDF membrane (Millipore, Bedford, Mass.). Immunoblotting was carried out by first blocking membranes in TBST buffer (20 mM Tris (pH 7.5), 500 mM NaCl, 0.1% Tween-20) containing 5% BSA for pY99 and 5% nonfat milk for others, and then incubating for 2 hours at room temperature or overnight at 4° C. in TBST buffer containing one of the following primary antibodies: anti-Trk 44 serum (1:2000); anti-phosphotyrosine pY99 antibody (0.1 μg/ml) (Santa Cruz Biotechnology, Santa Cruz, Calif.); anti-ARMS (892) antiserum (1:1000). Membranes were washed with TBST buffer and then incubated with horseradish peroxidase (HRP)-conjugated goat anti-rabbit (Roche Molecular Biochemicals, Indianapolis, Ind.) or goat anti-mouse secondary antibodies (Jackson ImmunoResearch Laboratories, West Grove, Pa.) at 1:10,000 and 1:7500 dilutions, respectively. Immunoreactive protein bands were detected by enhanced chemiluminescence using ECL reagents (Amersham Pharmacia Biotech, Piscataway, N.J.).
The high degree of correspondence in the expression of ARMS and neurotrophin receptors and the endogenous association with TrkA receptors led the present inventors to postulate that ARMS might function as a target for Trk receptor phosphorylation. To investigate this possibility, cell lysates from NGF-treated PC12 cells were prepared and the ARMS protein was immunoprecipitated with anti-ARMS antiserum, 892. Phosphorylation of ARMS protein was visualized by immunoblotting with an anti-phosphotyrosine antibody, pY99. Tyrosine phosphorylation of ARMS was detectable within a minute of NGF addition (FIG. 10A, top), closely following the time course of TrkA autophosphorylation (FIG. 10A, bottom). With continued NGF treatment, the phosphorylation of ARMS persisted for 25 hours (FIG. 10B).

[2] = biological target: T1, association between ARMS and the TrkA receptor; assay: Coprecipitation of TrkA and ARMS in PC12 615 cells; details: NGF 100 ng/ml
T1 construct: expressed in transfected cells; host or cells: PC12 615 cells (TrkA-overexpressing PC12); ARMS is endogenous to these cells
T1 sequence (P04629 33-796): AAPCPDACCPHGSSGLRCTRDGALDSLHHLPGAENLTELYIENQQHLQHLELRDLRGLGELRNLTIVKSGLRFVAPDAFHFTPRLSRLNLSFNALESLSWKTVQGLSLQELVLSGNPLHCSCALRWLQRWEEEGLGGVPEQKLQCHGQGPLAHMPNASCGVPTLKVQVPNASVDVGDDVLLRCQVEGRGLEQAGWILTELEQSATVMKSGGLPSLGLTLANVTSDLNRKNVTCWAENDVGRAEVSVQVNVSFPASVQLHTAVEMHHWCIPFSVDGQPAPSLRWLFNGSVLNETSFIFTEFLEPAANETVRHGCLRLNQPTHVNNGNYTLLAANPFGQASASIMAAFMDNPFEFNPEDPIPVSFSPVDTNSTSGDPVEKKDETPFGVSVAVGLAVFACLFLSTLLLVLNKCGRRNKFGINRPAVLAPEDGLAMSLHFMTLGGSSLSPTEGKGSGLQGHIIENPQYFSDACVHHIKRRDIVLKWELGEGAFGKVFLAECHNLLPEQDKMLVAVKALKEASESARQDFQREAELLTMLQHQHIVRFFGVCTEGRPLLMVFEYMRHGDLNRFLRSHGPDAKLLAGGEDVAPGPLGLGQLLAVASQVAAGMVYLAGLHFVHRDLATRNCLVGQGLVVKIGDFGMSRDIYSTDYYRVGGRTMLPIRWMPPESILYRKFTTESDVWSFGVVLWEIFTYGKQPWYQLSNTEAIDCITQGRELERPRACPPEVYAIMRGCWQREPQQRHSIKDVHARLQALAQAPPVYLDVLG
T1 sequence (Q9EQG6 whole entry partner): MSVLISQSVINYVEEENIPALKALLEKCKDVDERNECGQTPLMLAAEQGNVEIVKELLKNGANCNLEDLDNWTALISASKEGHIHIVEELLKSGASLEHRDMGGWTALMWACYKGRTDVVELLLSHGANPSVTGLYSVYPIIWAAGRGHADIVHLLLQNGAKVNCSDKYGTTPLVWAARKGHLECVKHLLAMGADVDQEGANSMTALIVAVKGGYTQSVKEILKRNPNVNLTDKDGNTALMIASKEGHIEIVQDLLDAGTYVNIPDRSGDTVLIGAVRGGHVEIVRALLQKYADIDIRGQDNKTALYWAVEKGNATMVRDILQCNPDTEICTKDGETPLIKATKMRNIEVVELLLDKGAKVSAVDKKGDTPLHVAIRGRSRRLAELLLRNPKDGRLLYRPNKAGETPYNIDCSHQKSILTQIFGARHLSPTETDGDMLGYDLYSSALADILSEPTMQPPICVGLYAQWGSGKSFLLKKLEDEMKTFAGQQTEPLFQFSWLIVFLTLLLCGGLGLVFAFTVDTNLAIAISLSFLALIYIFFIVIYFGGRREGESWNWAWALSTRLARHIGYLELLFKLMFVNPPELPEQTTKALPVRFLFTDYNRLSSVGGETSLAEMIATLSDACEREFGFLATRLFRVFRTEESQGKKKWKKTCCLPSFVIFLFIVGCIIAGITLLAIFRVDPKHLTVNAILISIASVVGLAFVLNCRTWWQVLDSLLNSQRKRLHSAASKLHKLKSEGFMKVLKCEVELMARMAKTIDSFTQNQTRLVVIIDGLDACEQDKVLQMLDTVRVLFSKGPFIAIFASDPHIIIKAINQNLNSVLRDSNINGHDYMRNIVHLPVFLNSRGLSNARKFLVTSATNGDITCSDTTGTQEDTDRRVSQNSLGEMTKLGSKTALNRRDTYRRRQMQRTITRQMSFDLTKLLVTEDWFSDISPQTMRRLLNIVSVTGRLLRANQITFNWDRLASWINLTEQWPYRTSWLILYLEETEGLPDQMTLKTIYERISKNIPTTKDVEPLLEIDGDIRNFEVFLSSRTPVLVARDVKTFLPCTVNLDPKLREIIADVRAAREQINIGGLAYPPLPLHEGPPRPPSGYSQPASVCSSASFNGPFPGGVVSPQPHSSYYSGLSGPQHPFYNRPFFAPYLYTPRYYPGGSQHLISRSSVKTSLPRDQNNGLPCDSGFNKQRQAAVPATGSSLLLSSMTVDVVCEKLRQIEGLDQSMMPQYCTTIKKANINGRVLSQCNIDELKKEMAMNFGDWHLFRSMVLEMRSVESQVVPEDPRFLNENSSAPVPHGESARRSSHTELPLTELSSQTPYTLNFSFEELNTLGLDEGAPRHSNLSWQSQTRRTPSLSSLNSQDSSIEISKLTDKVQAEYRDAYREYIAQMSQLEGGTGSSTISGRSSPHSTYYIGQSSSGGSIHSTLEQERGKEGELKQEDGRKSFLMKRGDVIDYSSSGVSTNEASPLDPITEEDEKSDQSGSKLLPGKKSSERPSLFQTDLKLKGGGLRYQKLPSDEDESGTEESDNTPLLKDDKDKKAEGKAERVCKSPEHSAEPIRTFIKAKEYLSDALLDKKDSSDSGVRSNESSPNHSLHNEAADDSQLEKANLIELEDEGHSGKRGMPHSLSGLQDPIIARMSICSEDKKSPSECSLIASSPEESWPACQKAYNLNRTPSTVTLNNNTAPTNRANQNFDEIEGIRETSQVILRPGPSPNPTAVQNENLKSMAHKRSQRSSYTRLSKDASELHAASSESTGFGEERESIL
Description: (§1) FIGS. 9A-9D show coprecipitation of TrkA and ARMS (FIG. 9A) and colocalization of TrkA and ARMS (FIGS. 9B-9D). In FIG. 9A, PC12 615 cells were treated for 10 minutes and 25 hours with NGF (100 ng/ml). Lysates were prepared and subjected to immunoprecipitation with anti-Trk C-14 antibody, followed by immunoblot with anti-ARMS antibody. Normal rabbit IgG was used as a negative control. In FIGS. 9B-9D, immunofluorescence analysis of ARMS and TrkA receptor in sympathetic neurons is shown. SCG sympathetic neurons were grown in the presence of 150 ng/ml NGF, fixed and immunostained as described in the Methods section of Example 1. The ARMS protein and the TrkA receptor were subjected to double immunostaining using an anti-ARMS antiserum (FIG. 9B) and an anti-Trk B-3 (FIG. 9C) monoclonal antibody and analyzed by confocal microscopy. […]
(§2) For transient transfection experiments, HEK293 or HEK293T cells plated at 70-80% confluency in 10 cm dishes were subjected to calcium phosphate transfection with different combinations of the mammalian expression plasmids containing cDNAs for ARMS, rat TrkA, and rat HA-tagged p75 (Khursigara et al., 1999). […] Following centrifugation and removal of the insoluble fraction, protein concentration of the supernatant was determined by the Bio-Rad Protein Assay reagent (Bio-Rad Laboratories, Hercules, Calif.) with bovine serum albumin as the standard. […]

[3] = biological target: T2, association between ARMS and the TrkA receptor (Homo sapiens, UniProt P04629); assay: Coprecipitation of TrkA and ARMS in PC12 615 cells; details: NGF 100 ng/ml, IP anti-Trk C-14, blot anti-ARMS
T2 construct: expressed in transfected cells; host or cells: PC12 615 cells (TrkA-overexpressing PC12); ARMS is endogenous to these cells
T2 sequence (P04629 33-796): as the sequence (P04629 33-796) above
T2 sequence (Q9EQG6 whole entry partner): as the sequence (Q9EQG6 whole entry partner) above
Description: as §1, §2

[4] = test system: distribution of ARMS in hippocampal neurons and PC12 cells; assay: Immunofluorescence analysis of ARMS distribution; details: confocal immunofluorescence with antibody 892
Description: FIGS. 16A and 16B show a PC12 Immunofluorescence analysis. PC12 cells with (FIG. 16A) or without (FIG. 16B) NGF treatment cultured in Lab-Tek chamber slides (Nalge Nunc International) coated with collagen and poly-L-lysine were fixed with paraformaldehyde and permeablized with cold methanol. Cells were blocked with PBS containing 10% FCS and incubated with purified antibody (3 μg/ml) against the C-terminus of ARMS protein, 892 (Example 1). Primary antibodies were visualized using fluorescence-conjugated secondary antibodies (FITC-conjugated goat anti-rabbit IgG; Jackson Laboratories).
FIGS. 17A-17F show immunolocalization of ARMS and VAMP-2, a synaptic vesicle marker, in hippocampal neurons. Primary cultures of hippocampal neurons were obtained from rats E17-19 and maintained with Neurobasal medium (Gibco) supplemented with B-27 and 0.4 mM glutamine in Lab-Tek chamber slides (Nalge Nunc International) coated with poly-L-lysine. […] Primary antibodies were detected using fluorescence-conjugated secondary antibodies (FITC-conjugated goat anti-rabbit IgG and rhodamine-conjugated goat anti-mouse IgG (Jackson Laboratories)). […]

| Association between ARMS and TrkA receptor [2] | Persistence of ARMS-TrkA association after treatment [3] | Molecule | Induction of tyrosine phosphorylation of ARMS ([1]; PC12 615 cells) | Block of NGF-induced tyrosine phosphorylation of ARMS ([1]; PC12 615 cells, NGF treatment) | Block of NGF-induced tyrosine phosphorylation of ARMS ([1]; PC12 615 cells, NGF treatment, listed as K-252a) | Time to detectable ARMS phosphorylation ([1]; PC12 615 cells, NGF treatment) | Time of peak ARMS phosphorylation ([1]; PC12 cells, NGF treatment) | Change in distribution of ARMS [4] |
| --- | --- | --- | --- | --- | --- | --- | --- | --- |
|  |  | insulin | not elicited |  |  |  |  |  |
|  |  | COC(=O)[C@@]1(O)C[C@H]2O[C@]1(C)n1c3ccccc3c3c4c(c5c6ccccc6n2c5c31)C(=O)NC4 [K252a, reference compound] |  | potently blocked | completely abolished |  |  |  |
| NGF-dependent association | 25 h | NGF: neurotrophin, ligand of TrkA; obtained from Harlan (protein, UniProt P01139 122-241, looked up) Beta-nerve growth factor: SSTHPVFHMGEFSVCDSVSVWVGDKTTATDIKGKEVTVLAEVNINNSVFRQYFFETKCRASNPVESGCRGIDSKHWNSYCTTTHTFVKALTTDEKQAAWRFIRIDTACVCVLSRKATRRG | considerably more robust; also recorded: specifically induced |  |  | ≤ 1 min | ≤ 10 min | dramatic change in distribution; also recorded: localized at neurite tips |
